The text below walks through data of IntAct's records for PubMed 25910212.

The chains are these.
B1: Keratin, type II cytoskeletal 1 (Homo sapiens), P04264 (parent)
chain: MSRQFSSRSGYRSGGGFSSGSAGIINYQRRTTSSSTRRSGGGGGRFSSCGGGGGSFGAGGGFGSRSLVNLGGSKSISISVARGGGRGSGFGGGYGGGGFGGGGFGGGGFGGGGIGGGGFGGFGSGGGGFGGGGFGGGGYGGGYGPVCPPGGIQEVTINQSLLQPLNVEIDPEIQKVKSREREQIKSLNNQFASFIDKVRFLEQQNQVLQTKWELLQQVDTSTRTHNLEPYFESFINNLRRRVDQLKSDQSRLDSELKNMQDMVEDYRNKYEDEINKRTNAENEFVTIKKDVDGAYMTKVDLQAKLDNLQQEIDFLTALYQAELSQMQTQISETNVILSMDNNRSLDLDSIIAEVKAQYEDIAQKSKAEAESLYQSKYEELQITAGRHGDSVRNSKIEISELNRVIQRLRSEIDNVKKQISNLQQSISDAEQRGENALKDAKNKLNDLEDALQQAKEDLARLLRDYQELMNTKLALDLEIATYRTLLEGEESRMSGECAPNVSVSVSTSHTTISGGGSRGGGGGGYGSGGSSYGSGGGSYGSGGGGGGGRGSYGSGGSSYGSGGGSYGSGGGGGGHGSYGSGSSSGGYRGGSGGGGGGSSGGRGSGGGSSGGSIGGRGSSSGGVKSSGGSSSVKFVSTTYSGVTR
partner: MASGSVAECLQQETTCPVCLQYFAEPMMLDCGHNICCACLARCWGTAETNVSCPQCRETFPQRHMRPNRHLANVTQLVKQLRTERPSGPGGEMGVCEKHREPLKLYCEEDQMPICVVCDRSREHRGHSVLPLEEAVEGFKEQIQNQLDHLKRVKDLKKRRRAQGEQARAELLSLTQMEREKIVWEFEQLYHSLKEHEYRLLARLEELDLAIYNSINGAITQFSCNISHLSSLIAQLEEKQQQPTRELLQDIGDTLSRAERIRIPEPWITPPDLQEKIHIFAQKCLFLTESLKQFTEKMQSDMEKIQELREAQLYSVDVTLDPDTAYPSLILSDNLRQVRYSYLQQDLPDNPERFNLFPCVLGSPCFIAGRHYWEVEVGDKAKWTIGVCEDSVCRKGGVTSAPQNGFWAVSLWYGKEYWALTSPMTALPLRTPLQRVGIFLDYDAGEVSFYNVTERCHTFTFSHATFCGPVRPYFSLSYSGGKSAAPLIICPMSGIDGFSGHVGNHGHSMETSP
B2: Keratin, type II cytoskeletal 1 (Homo sapiens), P04264 (parent)
chain: B1 chain
B3: Cyclin-dependent kinase 4 (Homo sapiens), P11802 (parent)
chain: MATSRYEPVAEIGVGAYGTVYKARDPHSGHFVALKSVRVPNGGGGGGGLPISTVREVALLRRLEAFEHPNVVRLMDVCATSRTDREIKVTLVFEHVDQDLRTYLDKAPPPGLPAETIKDLMRQFLRGLDFLHANCIVHRDLKPENILVTSGGTVKLADFGLARIYSYQMALTPVVVTLWYRAPEVLLQSTYATPVDMWSVGCIFAEMFRRKPLFCGNSEADQLGKIFDLIGLPPEDDWPRDVSLPRGAFPPRGPRPVQSVVPEMEESGAQLLLEMLTFNPHKRISAFRALQHSYLHKDEGNPE

In one test the parent is B1. Particulars: with tri27_human TRIM27, P14373.
As for L161P, the “effect of a mutation on the interaction” value was “causing an interaction”.

The variants in the next test derive from B2. Particulars: with nup62_human NUP62, P37198.
Sequence of nup62_human NUP62, P37198 (P37198 whole entry): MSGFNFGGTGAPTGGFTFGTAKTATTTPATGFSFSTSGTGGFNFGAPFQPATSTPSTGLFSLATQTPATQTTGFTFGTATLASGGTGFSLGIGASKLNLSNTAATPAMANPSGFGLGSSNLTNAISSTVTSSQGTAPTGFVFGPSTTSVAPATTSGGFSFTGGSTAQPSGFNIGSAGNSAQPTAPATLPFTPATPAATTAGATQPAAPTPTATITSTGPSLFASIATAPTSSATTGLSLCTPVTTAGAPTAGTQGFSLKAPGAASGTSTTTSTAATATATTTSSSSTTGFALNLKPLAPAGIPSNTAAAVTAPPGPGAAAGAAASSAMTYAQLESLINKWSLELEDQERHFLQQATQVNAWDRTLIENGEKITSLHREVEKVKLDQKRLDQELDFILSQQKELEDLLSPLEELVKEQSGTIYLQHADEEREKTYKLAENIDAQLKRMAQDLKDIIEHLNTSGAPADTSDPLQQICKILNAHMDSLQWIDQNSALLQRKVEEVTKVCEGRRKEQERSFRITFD
Turning to L161P, the “effect of a mutation on the interaction” value is “causing an interaction”.

The next test covers variants of B2. Particulars: with KRT15, P19012.
Sequence of KRT15, P19012 (P19012 whole entry): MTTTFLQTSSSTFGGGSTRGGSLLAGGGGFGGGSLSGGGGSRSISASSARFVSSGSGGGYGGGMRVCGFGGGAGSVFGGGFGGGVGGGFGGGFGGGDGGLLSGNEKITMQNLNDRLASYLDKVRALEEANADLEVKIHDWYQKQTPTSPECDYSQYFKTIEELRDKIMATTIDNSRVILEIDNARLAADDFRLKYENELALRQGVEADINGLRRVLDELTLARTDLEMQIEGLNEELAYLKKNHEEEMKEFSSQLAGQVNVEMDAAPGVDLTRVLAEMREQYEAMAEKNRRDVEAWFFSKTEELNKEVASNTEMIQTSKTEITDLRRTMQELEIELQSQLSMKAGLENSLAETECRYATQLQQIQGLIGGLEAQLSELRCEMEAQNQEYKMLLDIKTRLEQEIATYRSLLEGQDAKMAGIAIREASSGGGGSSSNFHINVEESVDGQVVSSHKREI
Take L161P: the “effect of a mutation on the interaction” value was “causing an interaction”.

The next test covers variants of B2. Particulars: with kt33b_human KRT33B.
On to L161P, for which the “effect of a mutation on the interaction” value was “causing an interaction”.

In another test the parent is B2. Particulars: with goga2_human GOLGA2, Q08379.
Sequence of goga2_human GOLGA2, Q08379 (Q08379 whole entry): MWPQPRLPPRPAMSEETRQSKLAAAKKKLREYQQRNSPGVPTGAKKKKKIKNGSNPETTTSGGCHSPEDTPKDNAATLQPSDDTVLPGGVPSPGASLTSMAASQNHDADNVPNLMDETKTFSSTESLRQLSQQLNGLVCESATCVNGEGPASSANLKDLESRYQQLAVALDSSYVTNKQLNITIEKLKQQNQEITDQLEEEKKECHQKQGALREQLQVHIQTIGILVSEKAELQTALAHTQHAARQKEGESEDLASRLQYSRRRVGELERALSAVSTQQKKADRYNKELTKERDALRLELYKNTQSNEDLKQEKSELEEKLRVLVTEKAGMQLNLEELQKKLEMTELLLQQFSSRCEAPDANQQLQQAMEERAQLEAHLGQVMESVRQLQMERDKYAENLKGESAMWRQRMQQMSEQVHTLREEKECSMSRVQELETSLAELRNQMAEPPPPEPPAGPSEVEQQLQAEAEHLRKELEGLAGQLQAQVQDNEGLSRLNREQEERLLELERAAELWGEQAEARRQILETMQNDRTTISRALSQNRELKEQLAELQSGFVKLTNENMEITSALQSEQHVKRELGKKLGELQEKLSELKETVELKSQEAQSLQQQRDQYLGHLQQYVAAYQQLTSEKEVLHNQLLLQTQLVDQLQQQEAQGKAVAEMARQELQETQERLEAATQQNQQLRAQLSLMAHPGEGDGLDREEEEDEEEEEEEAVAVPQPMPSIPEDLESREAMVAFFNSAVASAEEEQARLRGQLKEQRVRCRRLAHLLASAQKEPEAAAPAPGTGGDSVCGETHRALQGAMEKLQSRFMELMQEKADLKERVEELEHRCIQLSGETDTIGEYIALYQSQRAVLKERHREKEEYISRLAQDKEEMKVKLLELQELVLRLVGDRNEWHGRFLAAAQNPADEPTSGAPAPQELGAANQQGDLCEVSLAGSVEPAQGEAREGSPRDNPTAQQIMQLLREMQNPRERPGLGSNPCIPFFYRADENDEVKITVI
Take L161P: the “effect of a mutation on the interaction” value is on record as “causing an interaction”.

Another test covers variants of B2. Particulars: with KRT15, P19012. This is another data set of the same source.
Turning to L161P, the “effect of a mutation on the interaction” value was “with no effect”.

Variants of B2 are the subject of the next test. Particulars: with kt33b_human KRT33B. The source holds these as a separate data set.
As for L161P, the “effect of a mutation on the interaction” value was “with no effect”.

Variants of B3 are the subject of the next test. Particulars: with ccnd1_human CCND1, P24385.
Sequence of ccnd1_human CCND1, P24385 (P24385 whole entry): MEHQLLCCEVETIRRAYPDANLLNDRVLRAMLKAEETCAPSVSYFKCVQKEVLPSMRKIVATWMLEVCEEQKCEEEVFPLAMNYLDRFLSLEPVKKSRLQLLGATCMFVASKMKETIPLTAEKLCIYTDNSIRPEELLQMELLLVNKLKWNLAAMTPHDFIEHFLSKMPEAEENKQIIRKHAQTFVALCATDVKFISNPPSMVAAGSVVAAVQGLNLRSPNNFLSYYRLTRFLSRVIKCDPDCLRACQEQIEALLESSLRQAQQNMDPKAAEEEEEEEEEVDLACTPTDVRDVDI
For the variant MATSRYEPVAEIGVGAYGTVYKARDPHSGHFVALKSVRVPSGGGGGGGLPISTVREVALLRRLEAFEHPNVVRLMDVCATSRTDREIKVTLVFEHVDQDLRTYLDKAPPPGLPAETIKDLMRQFLRGLDFLHANCIVHRDLKPENILVTSGGTVKLADFGLARIYSYQMALTPVVVTLWYRAPEVLLQSTYATPVDMWSVGCIFAEMFRRKPLFCGNSEADQLGKIFDLIGLPPEDDWPRDVSLPRGAFPPRGPRPVQSVVPEMEESGAQLLLEMLTFNPHKRISAFRALQHSYLHKDEGNPE [N41S], the “effect of a mutation on the interaction” value was “with no effect”.

The variants in another test derive from B3. Particulars: with ccnd3_human CCND3, P30281.
Sequence of ccnd3_human CCND3, P30281 (P30281 whole entry): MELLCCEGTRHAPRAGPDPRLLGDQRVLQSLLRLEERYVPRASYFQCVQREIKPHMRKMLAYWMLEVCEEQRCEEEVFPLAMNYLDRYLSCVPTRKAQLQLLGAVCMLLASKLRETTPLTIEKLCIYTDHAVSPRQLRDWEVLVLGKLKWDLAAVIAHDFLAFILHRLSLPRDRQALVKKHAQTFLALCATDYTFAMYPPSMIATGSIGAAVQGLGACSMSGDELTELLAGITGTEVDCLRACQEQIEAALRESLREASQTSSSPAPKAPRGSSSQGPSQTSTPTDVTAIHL
For the variant MATSRYEPVAEIGVGAYGTVYKARDPHSGHFVALKSVRVPSGGGGGGGLPISTVREVALLRRLEAFEHPNVVRLMDVCATSRTDREIKVTLVFEHVDQDLRTYLDKAPPPGLPAETIKDLMRQFLRGLDFLHANCIVHRDLKPENILVTSGGTVKLADFGLARIYSYQMALTPVVVTLWYRAPEVLLQSTYATPVDMWSVGCIFAEMFRRKPLFCGNSEADQLGKIFDLIGLPPEDDWPRDVSLPRGAFPPRGPRPVQSVVPEMEESGAQLLLEMLTFNPHKRISAFRALQHSYLHKDEGNPE [N41S], the “effect of a mutation on the interaction” value is “with no effect”.

The next test covers variants of B3. Particulars: with ccnd2_human CCND2, P30279.
Sequence of ccnd2_human CCND2, P30279 (P30279 whole entry): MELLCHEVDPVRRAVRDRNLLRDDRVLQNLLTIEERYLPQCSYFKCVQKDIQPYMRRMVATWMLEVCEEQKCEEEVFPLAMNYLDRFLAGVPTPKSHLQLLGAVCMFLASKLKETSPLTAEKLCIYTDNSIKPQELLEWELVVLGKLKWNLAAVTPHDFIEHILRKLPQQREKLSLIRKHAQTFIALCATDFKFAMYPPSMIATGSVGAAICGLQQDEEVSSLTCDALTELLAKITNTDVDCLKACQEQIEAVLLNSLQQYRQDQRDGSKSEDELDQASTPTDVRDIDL
Take MATSRYEPVAEIGVGAYGTVYKARDPHSGHFVALKSVRVPSGGGGGGGLPISTVREVALLRRLEAFEHPNVVRLMDVCATSRTDREIKVTLVFEHVDQDLRTYLDKAPPPGLPAETIKDLMRQFLRGLDFLHANCIVHRDLKPENILVTSGGTVKLADFGLARIYSYQMALTPVVVTLWYRAPEVLLQSTYATPVDMWSVGCIFAEMFRRKPLFCGNSEADQLGKIFDLIGLPPEDDWPRDVSLPRGAFPPRGPRPVQSVVPEMEESGAQLLLEMLTFNPHKRISAFRALQHSYLHKDEGNPE [N41S]: the “effect of a mutation on the interaction” value is “with no effect”.

Variants of B3 are the subject of the next test. Particulars: with cdn2b_human CDKN2B.
Consider MATSRYEPVAEIGVGAYGTVYKARDPHSGHFVALKSVRVPSGGGGGGGLPISTVREVALLRRLEAFEHPNVVRLMDVCATSRTDREIKVTLVFEHVDQDLRTYLDKAPPPGLPAETIKDLMRQFLRGLDFLHANCIVHRDLKPENILVTSGGTVKLADFGLARIYSYQMALTPVVVTLWYRAPEVLLQSTYATPVDMWSVGCIFAEMFRRKPLFCGNSEADQLGKIFDLIGLPPEDDWPRDVSLPRGAFPPRGPRPVQSVVPEMEESGAQLLLEMLTFNPHKRISAFRALQHSYLHKDEGNPE [N41S], for which the “effect of a mutation on the interaction” value is “with no effect”.

The variants in another test derive from B3. Particulars: with cdn2c_human CDKN2C.
As for MATSRYEPVAEIGVGAYGTVYKARDPHSGHFVALKSVRVPSGGGGGGGLPISTVREVALLRRLEAFEHPNVVRLMDVCATSRTDREIKVTLVFEHVDQDLRTYLDKAPPPGLPAETIKDLMRQFLRGLDFLHANCIVHRDLKPENILVTSGGTVKLADFGLARIYSYQMALTPVVVTLWYRAPEVLLQSTYATPVDMWSVGCIFAEMFRRKPLFCGNSEADQLGKIFDLIGLPPEDDWPRDVSLPRGAFPPRGPRPVQSVVPEMEESGAQLLLEMLTFNPHKRISAFRALQHSYLHKDEGNPE [N41S], the “effect of a mutation on the interaction” value is reported as “with no effect”.
